{"source": "paper doi:10.1101/589580", "data": [{"target": "full-length ZO1 with C-terminal mEGFP (UniProt Q07157)", "sequence (Q07157 whole entry)": "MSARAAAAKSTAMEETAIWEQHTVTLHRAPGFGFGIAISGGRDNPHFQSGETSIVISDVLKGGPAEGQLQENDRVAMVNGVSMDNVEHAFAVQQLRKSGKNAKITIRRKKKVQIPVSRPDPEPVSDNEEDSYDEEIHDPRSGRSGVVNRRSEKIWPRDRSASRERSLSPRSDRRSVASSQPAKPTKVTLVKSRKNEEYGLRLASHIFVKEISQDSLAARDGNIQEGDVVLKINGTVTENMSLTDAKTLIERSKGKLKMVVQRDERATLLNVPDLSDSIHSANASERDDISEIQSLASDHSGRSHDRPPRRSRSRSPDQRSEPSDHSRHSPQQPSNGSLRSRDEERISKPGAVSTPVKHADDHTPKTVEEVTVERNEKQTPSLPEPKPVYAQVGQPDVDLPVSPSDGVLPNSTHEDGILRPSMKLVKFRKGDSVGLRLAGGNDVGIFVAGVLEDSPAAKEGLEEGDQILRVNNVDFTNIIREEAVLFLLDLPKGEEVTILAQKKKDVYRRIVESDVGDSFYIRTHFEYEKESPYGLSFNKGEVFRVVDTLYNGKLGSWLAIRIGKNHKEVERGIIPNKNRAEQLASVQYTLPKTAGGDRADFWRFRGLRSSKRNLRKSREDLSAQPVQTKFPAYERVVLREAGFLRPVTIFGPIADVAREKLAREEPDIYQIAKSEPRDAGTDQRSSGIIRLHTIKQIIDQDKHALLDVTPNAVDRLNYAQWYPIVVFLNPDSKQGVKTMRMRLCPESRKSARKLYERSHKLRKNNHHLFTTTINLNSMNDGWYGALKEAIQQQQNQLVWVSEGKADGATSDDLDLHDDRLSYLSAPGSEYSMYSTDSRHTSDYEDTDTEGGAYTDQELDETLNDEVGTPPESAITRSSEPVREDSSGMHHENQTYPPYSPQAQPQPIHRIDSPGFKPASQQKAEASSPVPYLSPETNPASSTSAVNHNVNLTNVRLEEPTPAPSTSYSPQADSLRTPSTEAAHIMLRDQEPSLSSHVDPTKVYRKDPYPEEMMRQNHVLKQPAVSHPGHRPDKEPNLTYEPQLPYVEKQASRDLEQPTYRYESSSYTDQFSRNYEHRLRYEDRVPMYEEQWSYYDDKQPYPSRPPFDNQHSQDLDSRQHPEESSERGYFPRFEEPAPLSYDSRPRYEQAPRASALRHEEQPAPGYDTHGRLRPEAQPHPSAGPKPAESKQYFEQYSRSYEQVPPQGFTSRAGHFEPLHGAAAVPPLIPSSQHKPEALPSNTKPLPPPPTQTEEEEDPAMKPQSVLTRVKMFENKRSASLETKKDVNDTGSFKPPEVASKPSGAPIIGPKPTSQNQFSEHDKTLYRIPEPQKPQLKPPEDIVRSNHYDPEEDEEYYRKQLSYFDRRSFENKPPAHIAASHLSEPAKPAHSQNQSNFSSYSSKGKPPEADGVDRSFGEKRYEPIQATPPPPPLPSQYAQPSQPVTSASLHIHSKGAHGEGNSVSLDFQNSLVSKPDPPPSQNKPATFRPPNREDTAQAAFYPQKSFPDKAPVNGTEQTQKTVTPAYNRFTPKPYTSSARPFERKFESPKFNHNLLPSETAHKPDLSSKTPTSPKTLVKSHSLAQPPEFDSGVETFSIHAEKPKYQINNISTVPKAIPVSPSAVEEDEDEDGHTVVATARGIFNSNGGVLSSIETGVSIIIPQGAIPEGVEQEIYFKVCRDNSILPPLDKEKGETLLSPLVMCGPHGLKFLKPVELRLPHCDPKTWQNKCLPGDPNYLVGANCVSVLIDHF", "experiment": "client partitioning into phase-separated droplets", "units": {"partitioning (client fluorescence inside/outside ZO1 droplets)": "fold"}, "values": [{"substance": "C-terminal domain of nectin-1 (from UniProt Q15223 31-517) (domain or fragment)", "partitioning (client fluorescence inside/outside ZO1 droplets)": 9}, {"substance": "monomeric actin (from UniProt P60709 1-375) (natural protein)", "partitioning (client fluorescence inside/outside ZO1 droplets)": 22}, {"substance": "C-terminal domain of occludin (from UniProt Q16625 1-522) (domain or fragment)", "partitioning (client fluorescence inside/outside ZO1 droplets)": 21}]}]}
